Biological target: T1, human folate receptor β (FRβ) (human, UniProt P14207 23-230)
T1 construct: Expressed on mouse B300-19 cells from cDNA cloned from human rheumatoid synovial membrane; also called human FRβ
Assay: hybridoma antibodies selected by reactivity with FRβ-expressing cells (human FRβ on mouse B300-19 cells); reactivity analysed by flow cytometry

T1 sequence (P14207 23-230 S117T limits assumed): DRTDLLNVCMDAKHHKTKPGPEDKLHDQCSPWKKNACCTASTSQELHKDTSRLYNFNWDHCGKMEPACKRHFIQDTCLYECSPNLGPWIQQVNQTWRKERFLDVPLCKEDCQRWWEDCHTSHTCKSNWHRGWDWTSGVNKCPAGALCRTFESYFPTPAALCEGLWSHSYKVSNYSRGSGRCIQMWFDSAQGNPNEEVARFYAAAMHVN

B1: anti-human FRβ mouse monoclonal antibody 36b (antibody, mouse IgG2a, V domains shown)
VH: QVQLQQSGAELMKPGASLKISCKATGYTFSSYWIEWVKQRPGHGLQWIGEILPGSGSSNYNEKFKGKATFTADTSSNTAYMQLSSLTSEDSAVYYCARRGSSGSYFAMDYWGQGTSVTVSS
VL: DIQMTQSSSSFSVSLGDRVTITCKASEDIYNRLAWYQQKPGNAPRLLISGATSLETGVPLRFSGSGSGKDYTLSITSLQTEDIATYYCQQYWSTPWTFGGGTKLEIKK
notes: also called Clone 36b
Q: Does B1 bind?
A: Result: binds
